# Test results taken from the RNAGym collection of RNA variant scans (doi:10.7554/elife.80360).
# B1: Hairpin Ribozyme (parent)
# chain: GUCCUCUUUCACGUGCGCGUGAAAGAGAGAAGUGAACCAGAGAAACACACGUUGUGGUAUAUUACCUGGUA
# Variants of: B1
# Assay: self-cleavage, relative activity (ratio to wild type); higher = more cleavage; co-transcriptional
row,Variant,self-cleavage
1,GUCCUCUUUCACGUGCGCGUGAAAGAGAGAAGUGAACCAGAGAAUCACACGUUGUGGUAUAUUGCCUGGUA [A45U A64G],0.16
2,GUCCUCUUUCCCGUGCGCGUGAAAGAGAGAAGUGAACCAGAGAAACACACAUUGUGGUAUAUUACCUGGUA [A11C G51A],1.08
3,GUUCUCUUUCACGUGCGCGUGAAAGAGAGAAGUGAACCAGAGAAACACACGUUGUGGUCUAUUACCUGGUA [C3U A59C],0.143
4,GUCCUGUUUCACGUGCGCGUGAAAGAGAGAAGUGAACCAGAGAAACACACGUUGUGCUAUAUUACCUGGUA [C6G G57C],0.124
5,GUCCUCUUUCACGUGCGCGUGAAAGAGAGAAGUGAACCAGCGAAACACACGUUGUGGUAUCUUACCUGGUA [A41C A61C],0.456
6,GUCCUCUUUCACGUGCGCGUGAAAGAGAGAAGUGAACCAGAGAAACACACGUUGUGGCAUAUUACCCGGUA [U58C U67C],0.205
7,GUCCUCUUUCACGUGCGCGUGAAAUAGAGAAGUGAACCAGAGAAACACACGUUGUGGUAUAUUACCUGUUA [G25U G69U],0.165
8,GUCCUCUUUGACGUGCGCGUGAAAGAGAGAAGUGAACCAGAGAAACACACGUUGUAGUAUAUUACCUGGUA [C10G G56A],0.156
9,GUCCUCUUUAACGUGCGCGUUAAAGAGAGAAGUGAACCAGAGAAACACACGUUGUGGUAUAUUACCUGGUA [C10A G21U],0.939
10,GUCCUCUUUCACGUGCGCCUGAAAGAGAGAAGUGAACCAGAGAAACACACGCUGUGGUAUAUUACCUGGUA [G19C U52C],0.775
11,GUCCUCUUUCACGUGCGCGUGAAAGAGAGAUGUGAACCAGAGAAACACACGUUGUGGUAUAUUAACUGGUA [A31U C65A],0.127
12,GUCCUCUUUCACGCGCGCGUGAAAGAGAGAAGUGAACCAGAUAAACACACGUUGUGGUAUAUUACCUGGUA [U14C G42U],0.365
13,GUCCUCUUUCACGUGCGCGUGAAAGAGAGAAGUGAACCGGAGAAACACACGUUGUGGUAUAUUACCUGGGA [A39G U70G],0.332
14,GUCCUCGUUCACGUGCGCGUGAAAGAGAGAAGUGAACCAGAGAAACACACGUUAUGGUAUAUUACCUGGUA [U7G G54A],0.642
15,GUCCUCUUUCACGUGCGCGUGAAAGAGUGAAGUGAACCAGAGAAACACACGUUGUGGGAUAUUACCUGGUA [A28U U58G],0.416
16,GUCCUCUUUCGCGUGCGCGUGAAAGAGAGAAGUGAACCAGAGAAACACACGUGGUGGUAUAUUACCUGGUA [A11G U53G],0.755
17,GUCCUCUUUCACGUGCGCAUGAAAGAGAGAAGUGAACCAGAGAAACCCACGUUGUGGUAUAUUACCUGGUA [G19A A47C],0.308
18,GUCCUCUUGCACGUGCGCGUGAAAAAGAGAAGUGAACCAGAGAAACACACGUUGUGGUAUAUUACCUGGUA [U9G G25A],0.153
19,GUCCUCGUUCACGUGAGCGUGAAAGAGAGAAGUGAACCAGAGAAACACACGUUGUGGUAUAUUACCUGGUA [U7G C16A],0.929

row,Variant,self-cleavage
1,GUCCUCUUUCACGUGCGCGUGAAAGAGAGAAGUCAACCAGAGAAACACACGUUGUGGUAUAUUACUUGGUA [G34C C66U],1.29
2,GUCCUCUUUCACGUGCGCGUGAAAGAGACAAGUGAACCAGAUAAACACACGUUGUGGUAUAUUACCUGGUA [G29C G42U],0.11
3,GUCCUCUUUCACGUGCGCGUGAAAGAGAGAAGUGAACCAUAGAGACACACGUUGUGGUAUAUUACCUGGUA [G40U A44G],0.161
4,GUCCUCUUUCACGUGCGCGUGAAAGAGAGAAGUGAACCAGAGAAAUACACGUUGUUGUAUAUUACCUGGUA [C46U G56U],0.0878
5,GUCCUCUUUCACGUGCGCGUGAAAGAGAGAAGUGAACCACAGAAACACACGUUGUGAUAUAUUACCUGGUA [G40C G57A],0.111
6,GUCCUCUUUCACGUGCGCGUGAAAGAGAGAAGUGAACCCGAGAAACACACGUUGUGGUUUAUUACCUGGUA [A39C A59U],0.172
7,GUCCUCUUUCACGUGUGCGUGAAAGAGAGAAGUGAACCAGAGAAACACACGUUGUGGUAUAUUACCUGGGA [C16U U70G],0.722
8,GUCCUCUUUCACGUGCGCGUGAAAGAGAGAAGUUAACCAGAGAAACACAGGUUGUGGUAUAUUACCUGGUA [G34U C50G],1.12
9,GACCUCUUUCACGUGCGCGUGAAAGAGAGAAGUGAACCAGAGAAACACACGUUGUGGUAUAUUACAUGGUA [U2A C66A],0.124
10,GUUCUUUUUCACGUGCGCGUGAAAGAGAGAAGUGAACCAGAGAAACACACGUUGUGGUAUAUUACCUGGUA [C3U C6U],0.347
11,GUCCUCUUUCACGUGCGCGUCAAAGAGAGAAGUGAACCAGAGAAACGCACGUUGUGGUAUAUUACCUGGUA [G21C A47G],0.157
12,GUCCUCUUUCACGUGCGCGUGAAAGAGAGAAGUGAACCAGAGAACCACACGUUGUGGUUUAUUACCUGGUA [A45C A59U],0.151
13,GUCCUCUUUCACGUGCGCGUGAAAGAGAGAAGUGAACCAGAAAAACACACGUUGUGGUAUAUUACCUAGUA [G42A G68A],0.14
14,GUCCUCUUUCACGUGCGCCUGAAAGAGAGAAGUGAACCAGAGAAACACACGUUGUGGUAUAUUCCCUGGUA [G19C A64C],0.182
15,GUCCUCUUUCACGUGCGCGUGAAAGAGAGAAGUGAACCAGAGAAACACUCGUUGAGGUAUAUUACCUGGUA [A49U U55A],1.03
16,GUCCUCUUUCACGUGCGCGUGACAGAGAGAAGUGAACCAAAGAAACACACGUUGUGGUAUAUUACCUGGUA [A23C G40A],0.342
17,GUACUCUUUCACGUGCGCGUGAAAGAGAGGAGUGAACCAGAGAAACACACGUUGUGGUAUAUUACCUGGUA [C3A A30G],0.146
18,GUCCUCUUUCAGGUGCGCGUGAAAGAGAGAAGUGACCCAGAGAAACACACGUUGUGGUAUAUUACCUGGUA [C12G A36C],0.533
19,GUCCUCUUUCACGUGCGCGUGAAAGAGAGAAGUGAACCAGAGAAACACACGUUGUGGGAUAUUCCCUGGUA [U58G A64C],0.163
